B1: Ex4-ScrL (antibody, mouse IgG2a)
heavy: QVQLVQSGSELKKPGASVKVSCKASGYTFTNYGMNWVRQAPGQGLEWMGWINTRNGKSTYVDDFKGRFVFSLDTSVSTAYLQISSLKADDTAVYYCAREGNMDGYFPFTYWGQGTLVTVSSAKTTAPSVYPLAPVCGDTTGSSVTLGCLVKGYFPEPVTLTWNSGSLSSGVHTFPAVLQSDLYTLSSSVTVTSSTWPSQSITCNVAHPASSTKVDKKIEPRGPTIKPCPPCKCPAPNLAGAPSVFIFPPKIKDVLMISLSPIVTCVVVDVSEDDPDVQISWFVNNVEVHTAQTQTHREDYNSTLRVVSALPIQHQDWMSGKEFKCKVNNKDLPAPIERTISKPKGSVRAPQVYVLPPPEEEMTKKQVTLTCMVTDFMPEDIYVEWTNNGKTELNYKNTEPVLDSDGSYFMYSKLRVEKKNWVERNSYSCSVVHEGLHNHHTTKSFSRTPGK
light: not shown
B2: GLP-1ScrL (antibody, mouse IgG2a)
heavy: QVQLVQSGSELKKPGASVKVSCKASGYTFTNYGMNWVRQAPGQGLEWMGWINTRNGKSTYVDDFKGRFVFSLDTSVSTAYLQISSLKADDTAVYYCAREGNMDGYFPFTYWGQGTLVTVSSAKTTAPSVYPLAPVCGDTTGSSVTLGCLVKGYFPEPVTLTWNSGSLSSGVHTFPAVLQSDLYTLSSSVTVTSSTWPSQSITCNVAHPASSTKVDKKIEPRGPTIKPCPPCKCPAPNLAGAPSVFIFPPKIKDVLMISLSPIVTCVVVDVSEDDPDVQISWFVNNVEVHTAQTQTHREDYNSTLRVVSALPIQHQDWMSGKEFKCKVNNKDLPAPIERTISKPKGSVRAPQVYVLPPPEEEMTKKQVTLTCMVTDFMPEDIYVEWTNNGKTELNYKNTEPVLDSDGSYFMYSKLRVEKKNWVERNSYSCSVVHEGLHNHHTTKSFSRTPGK
light: HGEGTFTSDVSSYLEGQAAKEFIAWLVKGRGSGGGGSGGGGSGDIVMTQSPSSLSASVGDRVTITCKASQNVGTNVAWYQQKPGKAPKALIYSASYRYSGVPDRFSGSGSGTDFTLTISSLQPEDFATYYCQQYNSYPLTFGGGTKVEIKRTVAAPTVSIFPPSSEQLTSGGASVVCFLNNFYPKDINVKWKIDGSERQNGVLNSWTDQDSKDSTYSMSSTLTLTKDEYERHNSYTCEATHKTSTSPIVKSFNRNEC
B3: Ex4-ScrH (antibody, mouse IgG2a, kappa)
heavy: not shown
light: DIVMTQSPSSLSASVGDRVTITCKASQNVGTNVAWYQQKPGKAPKALIYSASYRYSGVPDRFSGSGSGTDFTLTISSLQPEDFATYYCQQYNSYPLTFGGGTKVEIKRTDAAPTVSIFPPSSEQLTSGGASVVCFLNNFYPKDINVKWKIDGSERQNGVLNSWTDQDSKDSTYSMSSTLTLTKDEYERHNSYTCEATHKTSTSPIVKSFNRNEC
B4: GLP-1ScrH (antibody, mouse IgG2a, kappa)
heavy: HGEGTFTSDVSSYLEGQAAKEFIAWLVKGRGSGGGGSGGGGSGQVQLVQSGSELKKPGASVKVSCKASGYTFTNYGMNWVRQAPGQGLEWMGWINTRNGKSTYVDDFKGRFVFSLDTSVSTAYLQISSLKADDTAVYYCAREGNMDGYFPFTYWGQGTLVTVSSAKTTAPSVYPLAPVCGDTTGSSVTLGCLVKGYFPEPVTLTWNSGSLSSGVHTFPAVLQSDLYTLSSSVTVTSSTWPSQSITCNVAHPASSTKVDKKIEPRGPTIKPCPPCKCPAPNLAGAPSVFIFPPKIKDVLMISLSPIVTCVVVDVSEDDPDVQISWFVNNVEVHTAQTQTHREDYNSTLRVVSALPIQHQDWMSGKEFKCKVNNKDLPAPIERTISKPKGSVRAPQVYVLPPPEEEMTKKQVTLTCMVTDFMPEDIYVEWTNNGKTELNYKNTEPVLDSDGSYFMYSKLRVEKKNWVERNSYSCSVVHEGLHNHHTTKSFSRTPGK
light: DIVMTQSPSSLSASVGDRVTITCKASQNVGTNVAWYQQKPGKAPKALIYSASYRYSGVPDRFSGSGSGTDFTLTISSLQPEDFATYYCQQYNSYPLTFGGGTKVEIKRTDAAPTVSIFPPSSEQLTSGGASVVCFLNNFYPKDINVKWKIDGSERQNGVLNSWTDQDSKDSTYSMSSTLTLTKDEYERHNSYTCEATHKTSTSPIVKSFNRNEC
B5: Ex4-FGFR1cA1H (antibody, mouse IgG2a)
heavy: not shown
light: EIVLTQSPLSLPVTPGEPASISCRSSQSLRHSNGYNYLDWYLQKPGQSPQLLIYLASNRASGVPDRFSGSGSGTDFTLKISRVEAEDVGVYYCMQALQIPPTFGPGTKVDIKRTVAAPTVSIFPPSSEQLTSGGASVVCFLNNFYPKDINVKWKIDGSERQNGVLNSWTDQDSKDSTYSMSSTLTLTKDEYERHNSYTCEATHKTSTSPIVKSFNRNEC
B6: GLP1ScrH/L (antibody, mouse IgG2a)
heavy: HGEGTFTSDVSSYLEGQAAKEFIAWLVKGRGSGGGGSGGGGSGQVQLVQSGSELKKPGASVKVSCKASGYTFTNYGMNWVRQAPGQGLEWMGWINTRNGKSTYVDDFKGRFVFSLDTSVSTAYLQISSLKADDTAVYYCAREGNMDGYFPFTYWGQGTLVTVSSAKTTAPSVYPLAPVCGDTTGSSVTLGCLVKGYFPEPVTLTWNSGSLSSGVHTFPAVLQSDLYTLSSSVTVTSSTWPSQSITCNVAHPASSTKVDKKIEPRGPTIKPCPPCKCPAPNLAGAPSVFIFPPKIKDVLMISLSPIVTCVVVDVSEDDPDVQISWFVNNVEVHTAQTQTHREDYNSTLRVVSALPIQHQDWMSGKEFKCKVNNKDLPAPIERTISKPKGSVRAPQVYVLPPPEEEMTKKQVTLTCMVTDFMPEDIYVEWTNNGKTELNYKNTEPVLDSDGSYFMYSKLRVEKKNWVERNSYSCSVVHEGLHNHHTTKSFSRTPGK
light: HGEGTFTSDVSSYLEGQAAKEFIAWLVKGRGSGGGGSGGGGSGDIVMTQSPSSLSASVGDRVTITCKASQNVGTNVAWYQQKPGKAPKALIYSASYRYSGVPDRFSGSGSGTDFTLTISSLQPEDFATYYCQQYNSYPLTFGGGTKVEIKRTVAAPTVSIFPPSSEQLTSGGASVVCFLNNFYPKDINVKWKIDGSERQNGVLNSWTDQDSKDSTYSMSSTLTLTKDEYERHNSYTCEATHKTSTSPIVKSFNRNEC
B7: Ex4-FGFR1cA1L (antibody, mouse IgG2a)
heavy: QVQLVQSGAEVKKPGSSVKVSCKASGQTFTGYYMHWVRQAPGQGLEWMGRIIPILGIAQKFQGRVTITADKSTSTAYMELSSLRSEDTAVYYCARGGDLGGMDVWGQGTLVTVSSAKTTAPSVYPLAPVCGDTTGSSVTLGCLVKGYFPEPVTLTWNSGSLSSGVHTFPAVLQSDLYTLSSSVTVTSSTWPSQSITCNVAHPASSTKVDKKIEPRGPTIKPCPPCKCPAPNLAGAPSVFIFPPKIKDVLMISLSPIVTCVVVDVSEDDPDVQISWFVNNVEVHTAQTQTHREDYNSTLRVVSALPIQHQDWMSGKEFKCKVNNKDLPAPIERTISKPKGSVRAPQVYVLPPPEEEMTKKQVTLTCMVTDFMPEDIYVEWTNNGKTELNYKNTEPVLDSDGSYFMYSKLRVEKKNWVERNSYSCSVVHEGLHNHHTTKSFSRTPGK
light: not shown

Biological target: GLP-1 receptor on CHO 6CRE GLP1R cells
Test: cell-based or functional assay

Row | Binder | Average EC50 (pM), luciferase reporter in CHO 6CRE GLP1R cells [pM]
1 | B1 | 117
2 | B2 | 889
3 | B3 | 153
4 | B4 | 485
5 | B5 | 117
6 | B6 | 475
7 | B7 | 109
